This note sets out measurements from article PMC8519427, “High affinity associations with α-SNAP enable calcium entry via Orai1 channels” (PLoS ONE, 2021).

The assay deals with T1, human α-SNAP with an Avitag and a C-terminal 6xHis tag (human, UniProt P54920 1-295, biotin (in vitro biotinylated using BirA ligase; Avitag)).
T1 construct: alpha-soluble NSF attachment protein (α-SNAP), human, amplified from HEK 293 cDNA; The methods describe a single preparation; The biotinylated protein was captured on streptavidin tips for BLI; also called biotinylated α-SNAP; Avi-Tagged human α-SNAP; source: E. coli LEMO21(DE3), pET28b, purified; in vitro biotinylated with BirA ligase; not shown: Avitag, C-terminal, kept
T1 sequence (looked up): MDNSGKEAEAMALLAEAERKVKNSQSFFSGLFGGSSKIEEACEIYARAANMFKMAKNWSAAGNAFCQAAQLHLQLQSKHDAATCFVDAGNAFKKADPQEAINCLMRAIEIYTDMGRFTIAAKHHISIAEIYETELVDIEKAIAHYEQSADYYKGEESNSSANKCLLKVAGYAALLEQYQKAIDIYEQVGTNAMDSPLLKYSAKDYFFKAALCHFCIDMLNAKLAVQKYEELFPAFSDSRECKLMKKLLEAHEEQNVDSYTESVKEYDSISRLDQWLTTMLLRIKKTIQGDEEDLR
The assay can be described thus: pull-down; MBP- or GST-tagged Stim1 or Orai1 fragments immobilised on amylose or glutathione resin, incubated with 20–50 nM α-SNAP in Ringer's buffer with 0.1% NP-40 and 2 mM imidazole, 1 hr at 4°C; washed thrice; Western blot for α-SNAP. Conditions: both partners purified. For orientation: Immunoblotting shows a protein as a band on a membrane.

B1: MBP-Stim1 408–442 (CC3 domain) (domain or fragment, human, UniProt Q13586 408-442, looked up)
chain: KILTAKQALSEVTAALRERLHRWQQIEILCGFQIV
notes: Cloned into pMAL-c5X in frame with MBP; also called Stim1-CC3; source: E. coli LEMO21(DE3), purified by immobilizing on amylose resin
Regarding B1, the binding result is on record as “binds”.
